Test results reported in patent US20090280138A1 (OXFORD BIOMEDICA UK, published 2009).

Experiments:
Test in all cases: iTopia peptide binding assay
[1] = target: T1, MHC class I allele B*0702 (bound via biotin to streptavidin-coated plate)
T1 construct: iTopia MHC class I monomer on the plate; placeholder peptide and b2M removed, then reconstituted with test peptide and fresh b2M; also called B7; HLA B7
Method: (§1) The 9 mers were tested for Peptide Binding, Off Rate and Affinity using iTopia Epitope Discovery System in accordance with the manufacturer's instructions. Briefly, 96 well microtitre plates coated with MHC molecules representing different MHC alleles are used to identify candidate peptides. […] Determinations are performed in duplicate using an ELISA plate reader and included allele specific positive controls.
(§2) i) Peptide Binding—This assay measures the ability of individual peptides to bind to the MHC molecules under standardized optimal binding conditions. The assay is performed for all the test peptides across the selected MHC alleles. The test peptides identified as “binders” are characterized further in terms of affinity and dissociation experiments.

[2] = target: T2, MHC class I allele A*0201 (bound via biotin to streptavidin-coated plate)
T2 construct: iTopia MHC class I monomer on the plate; placeholder peptide and b2M removed, then reconstituted with test peptide and fresh b2M; also called A2; HLA A2
Method: as §1, §2

[3] = target: T3, MHC class I allele A*0301 (bound via biotin to streptavidin-coated plate)
T3 construct: iTopia MHC class I monomer on the plate; placeholder peptide and b2M removed, then reconstituted with test peptide and fresh b2M; also called A3; HLA A3
Method: as §1, §2

[4] = target: T4, MHC class I allele A*0101 (bound via biotin to streptavidin-coated plate)
T4 construct: iTopia MHC class I monomer on the plate; placeholder peptide and b2M removed, then reconstituted with test peptide and fresh b2M; also called A1; HLA A1
Method: as §1, §2

B1: 5T4 9 mer peptide 69 AFEHLPSLR (peptide)
peptide: AFEHLPSLR
notes: also called Peptide No 69
% of positive control peptide binding [1]: 0% | % of positive control peptide binding [2]: 11% | % of positive control peptide binding [3]: 11% | % of positive control peptide binding [4]: 1%

B2: 5T4 9 mer peptide 103 AGRALQGLR (peptide)
peptide: AGRALQGLR
notes: also called Peptide No 103
% of positive control peptide binding [1]: 1% | % of positive control peptide binding [2]: 2% | % of positive control peptide binding [3]: 2% | % of positive control peptide binding [4]: 0%

B3: 5T4 9 mer peptide 109 LASNHFLYL (peptide)
peptide: LASNHFLYL
% of positive control peptide binding [1]: 49% | % of positive control peptide binding [2]: 78% | % of positive control peptide binding [3]: 18% | % of positive control peptide binding [4]: 26%

B4: 5T4 9 mer peptide 99 GMVVAALLA (peptide)
peptide: GMVVAALLA
notes: also called Peptide No 99
% of positive control peptide binding [1]: 0% | % of positive control peptide binding [2]: 71% | % of positive control peptide binding [3]: 0% | % of positive control peptide binding [4]: 0%

B5: 5T4 9 mer peptide 65 RLDEVRAGA (peptide)
peptide: RLDEVRAGA
notes: also called Peptide No 65
% of positive control peptide binding [1]: 32% | % of positive control peptide binding [2]: 69% | % of positive control peptide binding [3]: 17% | % of positive control peptide binding [4]: 4%

B6: 5T4 9 mer peptide 82 SGSNASVSA (peptide)
peptide: SGSNASVSA
notes: also called Peptide No 82
% of positive control peptide binding [1]: 11% | % of positive control peptide binding [2]: 15% | % of positive control peptide binding [3]: 3% | % of positive control peptide binding [4]: 5%

B7: 5T4 9 mer peptide 107 RRLELASNH (peptide)
peptide: RRLELASNH
% of positive control peptide binding [1]: 3% | % of positive control peptide binding [2]: 5% | % of positive control peptide binding [3]: 3% | % of positive control peptide binding [4]: 0%

B8: 5T4 9 mer peptide 71 LPSLRQLDL (peptide)
peptide: LPSLRQLDL
notes: also called Peptide No 71
% of positive control peptide binding [1]: 82% | % of positive control peptide binding [2]: 27% | % of positive control peptide binding [3]: 0% | % of positive control peptide binding [4]: 0%

B9: 5T4 9 mer peptide 117 LPSLRHLDL (peptide)
peptide: LPSLRHLDL
notes: also called Peptide No 117
% of positive control peptide binding [1]: 96% | % of positive control peptide binding [2]: 16% | % of positive control peptide binding [3]: 1% | % of positive control peptide binding [4]: 0%

B10: 5T4 9 mer peptide 100 VVAALLAGR (peptide)
peptide: VVAALLAGR
notes: also called Peptide No 100
% of positive control peptide binding [1]: 7% | % of positive control peptide binding [2]: 11% | % of positive control peptide binding [3]: 49% | % of positive control peptide binding [4]: 9%

B11: 5T4 9 mer peptide 59 LAELAALNL (peptide)
peptide: LAELAALNL
notes: also called Peptide No 59
% of positive control peptide binding [1]: 16% | % of positive control peptide binding [2]: 63% | % of positive control peptide binding [3]: 3% | % of positive control peptide binding [4]: 15%

B12: 5T4 9 mer peptide 85 VSAPSPLVE (peptide)
peptide: VSAPSPLVE
notes: also called Peptide No 85
% of positive control peptide binding [1]: 3% | % of positive control peptide binding [2]: 13% | % of positive control peptide binding [3]: 7% | % of positive control peptide binding [4]: 3%

B13: 5T4 9 mer peptide 80 PFAFSGSNA (peptide)
peptide: PFAFSGSNA
notes: also called Peptide No 80
% of positive control peptide binding [1]: 7% | % of positive control peptide binding [2]: 13% | % of positive control peptide binding [3]: 3% | % of positive control peptide binding [4]: 0%

B14: 5T4 9 mer peptide 81 AFSGSNASV (peptide)
peptide: AFSGSNASV
notes: also called Peptide No 81
% of positive control peptide binding [1]: 14% | % of positive control peptide binding [2]: 55% | % of positive control peptide binding [3]: 2% | % of positive control peptide binding [4]: 2%

B15: 5T4 9 mer peptide 94 EDERQNRSF (peptide)
peptide: EDERQNRSF
notes: also called Peptide No 94
% of positive control peptide binding [1]: 4% | % of positive control peptide binding [2]: 2% | % of positive control peptide binding [3]: 4% | % of positive control peptide binding [4]: 0%

B16: 5T4 9 mer peptide 66 DEVRAGAFE (peptide)
peptide: DEVRAGAFE
notes: also called Peptide No 66
% of positive control peptide binding [1]: 12% | % of positive control peptide binding [2]: 9% | % of positive control peptide binding [3]: 7% | % of positive control peptide binding [4]: 6%

B17: 5T4 9 mer peptide 57 RRPPLAELA (peptide)
peptide: RRPPLAELA
notes: also called Peptide No 57
% of positive control peptide binding [1]: 9% | % of positive control peptide binding [2]: 11% | % of positive control peptide binding [3]: 2% | % of positive control peptide binding [4]: 2%

B18: 5T4 9 mer peptide 77 PLADLSPFA (peptide)
peptide: PLADLSPFA
notes: also called Peptide No 77
% of positive control peptide binding [1]: 10% | % of positive control peptide binding [2]: 67% | % of positive control peptide binding [3]: 0% | % of positive control peptide binding [4]: 1%

B19: 5T4 9 mer peptide 61 AALNLSGSR (peptide)
peptide: AALNLSGSR
notes: also called Peptide No 61
% of positive control peptide binding [1]: 3% | % of positive control peptide binding [2]: 6% | % of positive control peptide binding [3]: 13% | % of positive control peptide binding [4]: 3%

B20: 5T4 9 mer peptide 62 LNLSGSRLD (peptide)
peptide: LNLSGSRLD
notes: also called Peptide No 62
% of positive control peptide binding [1]: 7% | % of positive control peptide binding [2]: 7% | % of positive control peptide binding [3]: 2% | % of positive control peptide binding [4]: 2%

B21: 5T4 9 mer peptide 92 IVPPEDERQ (peptide)
peptide: IVPPEDERQ
notes: also called Peptide No 92
% of positive control peptide binding [1]: 3% | % of positive control peptide binding [2]: 12% | % of positive control peptide binding [3]: 3% | % of positive control peptide binding [4]: 6%

B22: 5T4 9 mer peptide 58 PPLAELAAL (peptide)
peptide: PPLAELAAL
notes: also called Peptide No 58
% of positive control peptide binding [1]: 33% | % of positive control peptide binding [2]: 19% | % of positive control peptide binding [3]: 4% | % of positive control peptide binding [4]: 6%

B23: 5T4 9 mer peptide 68 AGAFEHLPS (peptide)
peptide: AGAFEHLPS
notes: also called Peptide No 68
% of positive control peptide binding [1]: 7% | % of positive control peptide binding [2]: 10% | % of positive control peptide binding [3]: 3% | % of positive control peptide binding [4]: 6%

B24: 5T4 9 mer peptide 72 SLRQLDLSH (peptide)
peptide: SLRQLDLSH
notes: also called Peptide No 72
% of positive control peptide binding [1]: 13% | % of positive control peptide binding [2]: 6% | % of positive control peptide binding [3]: 11% | % of positive control peptide binding [4]: 0%

B25: 5T4 9 mer peptide 90 ILNHIVPPE (peptide)
peptide: ILNHIVPPE
notes: also called Peptide No 90
% of positive control peptide binding [1]: 7% | % of positive control peptide binding [2]: 63% | % of positive control peptide binding [3]: 4% | % of positive control peptide binding [4]: 5%

B26: 5T4 9 mer peptide 54 PAGAFARRP (peptide)
peptide: PAGAFARRP
notes: also called Peptide No 54
% of positive control peptide binding [1]: 7% | % of positive control peptide binding [2]: 4% | % of positive control peptide binding [3]: 3% | % of positive control peptide binding [4]: 2%

B27: 5T4 9 mer peptide 5 PAAGDGRLR (peptide)
peptide: PAAGDGRLR
notes: also called Peptide No 5
% of positive control peptide binding [1]: 5% | % of positive control peptide binding [2]: 5% | % of positive control peptide binding [3]: 4% | % of positive control peptide binding [4]: 4%

B28: 5T4 9 mer peptide 93 PPEDERQNR (peptide)
peptide: PPEDERQNR
notes: also called Peptide No 93
% of positive control peptide binding [1]: 0% | % of positive control peptide binding [2]: 2% | % of positive control peptide binding [3]: 0% | % of positive control peptide binding [4]: 0%

B29: 5T4 9 mer peptide 55 GAFARRPPL (peptide)
peptide: GAFARRPPL
notes: also called Peptide No 55
% of positive control peptide binding [1]: 91% | % of positive control peptide binding [2]: 41% | % of positive control peptide binding [3]: 3% | % of positive control peptide binding [4]: 0%

B30: 5T4 9 mer peptide 73 RQLDLSHNP (peptide)
peptide: RQLDLSHNP
notes: also called Peptide No 73
% of positive control peptide binding [1]: 4% | % of positive control peptide binding [2]: 8% | % of positive control peptide binding [3]: 2% | % of positive control peptide binding [4]: 2%

B31: 5T4 9 mer peptide 49 FLTGNQLAV (peptide)
peptide: FLTGNQLAV
notes: also called Peptide No 49
% of positive control peptide binding [1]: 6% | % of positive control peptide binding [2]: 90% | % of positive control peptide binding [3]: 3% | % of positive control peptide binding [4]: 4%

B32: 5T4 9 mer peptide 95 ERQNRSFEG (peptide)
peptide: ERQNRSFEG
notes: also called Peptide No 95
% of positive control peptide binding [1]: 1% | % of positive control peptide binding [2]: 1% | % of positive control peptide binding [3]: 1% | % of positive control peptide binding [4]: 0%

B33: 5T4 9 mer peptide 113 LPRDVLAQL (peptide)
peptide: LPRDVLAQL
% of positive control peptide binding [1]: 79% | % of positive control peptide binding [2]: 10% | % of positive control peptide binding [3]: 3% | % of positive control peptide binding [4]: 3%

B34: 5T4 9 mer peptide 76 HNPLADLSP (peptide)
peptide: HNPLADLSP
notes: also called Peptide No 76
% of positive control peptide binding [1]: 5% | % of positive control peptide binding [2]: 7% | % of positive control peptide binding [3]: 3% | % of positive control peptide binding [4]: 5%

B35: 5T4 9 mer peptide 101 AALLAGRAL (peptide)
peptide: AALLAGRAL
% of positive control peptide binding [1]: 59% | % of positive control peptide binding [2]: 38% | % of positive control peptide binding [3]: 0% | % of positive control peptide binding [4]: 1%

B36: 5T4 9 mer peptide 91 NHIVPPEDE (peptide)
peptide: NHIVPPEDE
notes: also called Peptide No 91
% of positive control peptide binding [1]: 5% | % of positive control peptide binding [2]: 11% | % of positive control peptide binding [3]: 3% | % of positive control peptide binding [4]: 6%
